Results as given in the supplement of paper PMC10567573.

B1: UBE2R2 (parent)
chain: DPQSGELPSERWNPTQNVRTILLS

Variants of: B1
Assay: protein stability index of a GFP-peptide fusion (GPS, HEK-293T) (PSI 1-6); higher = more stable
Conditions: c terminus: a fixed tail appended
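Further: lentivirally expressed fusions sorted by FACS into six bins by GFP to DsRed ratio, PSI derived from sequencing read proportions per bin multiplied by bin number.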

Row | Variant | protein stability index
1 | DMQSGELPSERWNPTQNVRTILLS [P2M] | 3.16
2 | DNQSGELPSERWNPTQNVRTILLS [P2N] | 3.35
3 | DQQSGELPSERWNPTQNVRTILLS [P2Q] | 3.22
4 | DRQSGELPSERWNPTQNVRTILLS [P2R] | 3.09
5 | DTQSGELPSERWNPTQNVRTILLS [P2T] | 3.52
6 | DVQSGELPSERWNPTQNVRTILLS [P2V] | 3.61
7 | DWQSGELPSERWNPTQNVRTILLS [P2W] | 2.34
8 | DPASGELPSERWNPTQNVRTILLS [Q3A] | 3.67
9 | DPCSGELPSERWNPTQNVRTILLS [Q3C] | 3.81
10 | DPDSGELPSERWNPTQNVRTILLS [Q3D] | 3.9
11 | DPESGELPSERWNPTQNVRTILLS [Q3E] | 3.82
12 | DPFSGELPSERWNPTQNVRTILLS [Q3F] | 4.05
13 | DPGSGELPSERWNPTQNVRTILLS [Q3G] | 3.79
14 | DPHSGELPSERWNPTQNVRTILLS [Q3H] | 3.22
15 | DPISGELPSERWNPTQNVRTILLS [Q3I] | 3.24
16 | DPKSGELPSERWNPTQNVRTILLS [Q3K] | 3.06
17 | DPLSGELPSERWNPTQNVRTILLS [Q3L] | 3.65
18 | DPMSGELPSERWNPTQNVRTILLS [Q3M] | 3.53
19 | DPNSGELPSERWNPTQNVRTILLS [Q3N] | 3.45
20 | DPPSGELPSERWNPTQNVRTILLS [Q3P] | 3.01
21 | DPRSGELPSERWNPTQNVRTILLS [Q3R] | 3.4
22 | DPSSGELPSERWNPTQNVRTILLS [Q3S] | 3.41
23 | DPTSGELPSERWNPTQNVRTILLS [Q3T] | 4.11
24 | DPYSGELPSERWNPTQNVRTILLS [Q3Y] | 2.42

Row | Variant | protein stability index
25 | DPQAGELPSERWNPTQNVRTILLS [S4A] | 3.15
26 | DPQCGELPSERWNPTQNVRTILLS [S4C] | 3.61
27 | DPQDGELPSERWNPTQNVRTILLS [S4D] | 3.79
28 | DPQFGELPSERWNPTQNVRTILLS [S4F] | 3.49
29 | DPQHGELPSERWNPTQNVRTILLS [S4H] | 3.45
30 | DPQIGELPSERWNPTQNVRTILLS [S4I] | 3.4
31 | DPQKGELPSERWNPTQNVRTILLS [S4K] | 3.75
32 | DPQLGELPSERWNPTQNVRTILLS [S4L] | 3.6
33 | DPQMGELPSERWNPTQNVRTILLS [S4M] | 2.95
34 | DPQNGELPSERWNPTQNVRTILLS [S4N] | 2.99
35 | DPQPGELPSERWNPTQNVRTILLS [S4P] | 3.02
36 | DPQQGELPSERWNPTQNVRTILLS [S4Q] | 3.68
37 | DPQRGELPSERWNPTQNVRTILLS [S4R] | 3.87
38 | DPQTGELPSERWNPTQNVRTILLS [S4T] | 3.16
39 | DPQVGELPSERWNPTQNVRTILLS [S4V] | 3.41
40 | DPQYGELPSERWNPTQNVRTILLS [S4Y] | 2.39
41 | DPQSAELPSERWNPTQNVRTILLS [G5A] | 3.21
42 | DPQSCELPSERWNPTQNVRTILLS [G5C] | 2.8
43 | DPQSDELPSERWNPTQNVRTILLS [G5D] | 3.98
44 | DPQSEELPSERWNPTQNVRTILLS [G5E] | 4.5
45 | DPQSFELPSERWNPTQNVRTILLS [G5F] | 3.18
46 | DPQSHELPSERWNPTQNVRTILLS [G5H] | 3.83
47 | DPQSIELPSERWNPTQNVRTILLS [G5I] | 3.24
48 | DPQSKELPSERWNPTQNVRTILLS [G5K] | 3.49

Row | Variant | protein stability index
49 | DPQSLELPSERWNPTQNVRTILLS [G5L] | 3.53
50 | DPQSMELPSERWNPTQNVRTILLS [G5M] | 3.41
51 | DPQSNELPSERWNPTQNVRTILLS [G5N] | 3.96
52 | DPQSPELPSERWNPTQNVRTILLS [G5P] | 2.66
53 | DPQSQELPSERWNPTQNVRTILLS [G5Q] | 3.77
54 | DPQSRELPSERWNPTQNVRTILLS [G5R] | 3.45
55 | DPQSSELPSERWNPTQNVRTILLS [G5S] | 3.61
56 | DPQSTELPSERWNPTQNVRTILLS [G5T] | 3.93
57 | DPQSVELPSERWNPTQNVRTILLS [G5V] | 3.27
58 | DPQSWELPSERWNPTQNVRTILLS [G5W] | 2.6
59 | DPQSYELPSERWNPTQNVRTILLS [G5Y] | 3.17
60 | DPQSGALPSERWNPTQNVRTILLS [E6A] | 3.13
61 | DPQSGCLPSERWNPTQNVRTILLS [E6C] | 3.02
62 | DPQSGDLPSERWNPTQNVRTILLS [E6D] | 3.44
63 | DPQSGFLPSERWNPTQNVRTILLS [E6F] | 2.3
64 | DPQSGGLPSERWNPTQNVRTILLS [E6G] | 3.3
65 | DPQSGHLPSERWNPTQNVRTILLS [E6H] | 3.25
66 | DPQSGILPSERWNPTQNVRTILLS [E6I] | 3.24
67 | DPQSGKLPSERWNPTQNVRTILLS [E6K] | 2.79
68 | DPQSGLLPSERWNPTQNVRTILLS [E6L] | 2.61
69 | DPQSGMLPSERWNPTQNVRTILLS [E6M] | 2.88
70 | DPQSGNLPSERWNPTQNVRTILLS [E6N] | 3.48
71 | DPQSGPLPSERWNPTQNVRTILLS [E6P] | 2.8
72 | DPQSGQLPSERWNPTQNVRTILLS [E6Q] | 3.49

Row | Variant | protein stability index
73 | DPQSGSLPSERWNPTQNVRTILLS [E6S] | 3.1
74 | DPQSGTLPSERWNPTQNVRTILLS [E6T] | 3.37
75 | DPQSGVLPSERWNPTQNVRTILLS [E6V] | 3.17
76 | DPQSGWLPSERWNPTQNVRTILLS [E6W] | 2.89
77 | DPQSGYLPSERWNPTQNVRTILLS [E6Y] | 2.95
78 | DPQSGEAPSERWNPTQNVRTILLS [L7A] | 4.25
79 | DPQSGECPSERWNPTQNVRTILLS [L7C] | 3.29
80 | DPQSGEDPSERWNPTQNVRTILLS [L7D] | 4.51
81 | DPQSGEEPSERWNPTQNVRTILLS [L7E] | 4.02
82 | DPQSGEFPSERWNPTQNVRTILLS [L7F] | 3.2
83 | DPQSGEGPSERWNPTQNVRTILLS [L7G] | 3.69
84 | DPQSGEHPSERWNPTQNVRTILLS [L7H] | 3.67
85 | DPQSGEIPSERWNPTQNVRTILLS [L7I] | 3.35
86 | DPQSGEKPSERWNPTQNVRTILLS [L7K] | 3.81
87 | DPQSGEMPSERWNPTQNVRTILLS [L7M] | 3.71
88 | DPQSGENPSERWNPTQNVRTILLS [L7N] | 4.11
89 | DPQSGEPPSERWNPTQNVRTILLS [L7P] | 4.68
90 | DPQSGEQPSERWNPTQNVRTILLS [L7Q] | 4.32
91 | DPQSGERPSERWNPTQNVRTILLS [L7R] | 3.81
92 | DPQSGESPSERWNPTQNVRTILLS [L7S] | 3.79
93 | DPQSGETPSERWNPTQNVRTILLS [L7T] | 4.12
94 | DPQSGEVPSERWNPTQNVRTILLS [L7V] | 3.19
